Here are results for one molecule from PMC11846418 (Cancer Cell International, 2025).

In this test the target is HA-CDK1 (UniProt P06493 1-297). The test is described as follows: pull-down.
HA-CDK1, sequence (P06493 whole entry): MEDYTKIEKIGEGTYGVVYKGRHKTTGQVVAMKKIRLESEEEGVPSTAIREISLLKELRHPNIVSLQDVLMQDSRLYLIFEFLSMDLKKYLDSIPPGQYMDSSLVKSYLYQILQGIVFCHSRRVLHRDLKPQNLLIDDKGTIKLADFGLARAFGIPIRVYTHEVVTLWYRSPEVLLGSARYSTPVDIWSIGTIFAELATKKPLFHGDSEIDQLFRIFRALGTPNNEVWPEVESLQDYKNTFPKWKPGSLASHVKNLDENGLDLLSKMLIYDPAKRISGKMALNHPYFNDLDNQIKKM

B1: GST-USP7 210-500 (domain or fragment, UniProt Q93009 210-500, looked up)
chain: HTGYVGLKNQGATCYMNSLLQTLFFTNQLRKAVYMMPTEGDDSSKSVPLALQRVFYELQHSDKPVGTKKLTKSFGWETLDSFMQHDVQELCRVLLDNVENKMKGTCVEGTIPKLFRGKMVSYIQCKEVDYRSDRREDYYDIQLSIKGKKNIFESFVDYVAVEQLDGDNKYDAGEHGLQEAEKGVKFLTLPPVLHLQLMRFMYDPQTDQNIKINDRFEFPEQLPLDEFLQKTDPKDPANYILHAVLVHSGDNHGGHYVVYLNPKGDGKWCKFDDDVVSRCTKEEAIEHNYGG
B1: the binding result is “binds”.
